{
  "source": "patent US20230295284A1",
  "about": "(published 2023)",
  "binders": {"B1": {"name": "LMJ2.4C (VHH)", "VHH": "QVQLVEAGGGLVQAGGSLRLSCAASGSTFSHSAGGWYRQAPEKQRELVAGIRSDGNINYADSVKDRFTISRDNASNTMYLQMNNLKPEDTAVYVCNIRGSYGNTYYSRWGQGIQVTVSS", "modifications": "sortase-tagged with biotin in the Western blots ; Purified by a his-tag for BLI and sortase-tagged with biotin in the Western blots. The tag letters are not stated for the free nanobody, so they are left out."}, "B2": {"name": "NJB2 (parental nanobody) (VHH)", "VHH": "QVQLVETGGGLVQAGGSLRLSCAASGSTFSHNAGGWYRQAPEKQRELVAGISSDGNINYADSVKDRFTISRDNASNTMYLQMNNLKPEDTAVYVCNIRGSYGNTYYSRWGQGTQVTVSS", "modifications": "Purified by a his-tag. Its letters and position are not stated for the free nanobody, so it is left out."}, "B3": {"name": "LMJ1.2C (VHH)", "VHH": "QVQLVETGGGLVQAGGSLRLSCAASGSTFSHSAGGWYRQAPEKQRELVAGIRSDGNINYADSVKDRFTISRDNASNTMYLQMNNLKPEDTAVYVCNIRGSYGNTYYSRWGQGTQVTVSS", "modifications": "sortase-tagged with biotin in the Western blots ; Purified by a his-tag for BLI and sortase-tagged with biotin in the Western blots. The tag letters are not stated for the free nanobody, so they are left out."}, "B4": {"name": "LMJ2.5J (VHH)", "VHH": "QVQLVETRGGLVQAGGSLRLSCAVSGSTFSHSAGGWYRQAPEKQRELVAGIGSAGNINYADSVKDRFTISRDNASNTMYLQMNNLKPEDTAVYVCNIRGSYGNTYYSRWGQGTQVTVSS", "modifications": "sortase-tagged with biotin in the Western blots ; Western blots used the nanobody sortase-tagged with biotin at a terminus. The BLI material was his-tag purified. Tag letters are not stated for the stand-alone nanobody and are left out."}, "B5": {"name": "LMJ2.5G (VHH)", "VHH": "QVQLVETEGGLVQAGGSLRLSCAASGSTFSHSAGGWYRQAPEKQRELVAGIRSDGNINYADSVKDRFTISRDNASNTMYLQMNNLKPEDTAVYVCNIRGSYGNTYYSRWGQGTQVTVSS", "modifications": "sortase-tagged with biotin in the Western blots ; Western blots used the nanobody sortase-tagged with biotin at a terminus. The BLI material was his-tag purified. Tag letters are not stated for the stand-alone nanobody and are left out."}, "B6": {"name": "LMJ2.6A (VHH)", "VHH": "RVQLVETGGGLVQAGGSLRLSCAVSGRTFSHSAGGWYRQAPEKQRELVAGIRSDGNINYADSVKDRFTISRDNASNTMYLQMNNLKPGDTAVYVCNIRGSYGNTYYSRWGQGTQVTVSS", "modifications": "sortase-tagged with biotin in the Western blots ; Purified by a his-tag for BLI and sortase-tagged with biotin in the Western blots. The tag letters are not stated for the free nanobody, so they are left out."}, "B7": {"name": "LMJ2.5I (VHH)", "VHH": "RVQLVETGGGLVQAGGSLRLSCAVSGSTFSHSAGGWYRQAPEKQRELVAGIRSDGNINYADSVKDRFTISRDNASNTMYLQMNNLKPEDTAVYVCNIRGSYGNTYYSRWGQGAQVTVSS", "modifications": "sortase-tagged with biotin in the Western blots ; Purified by a his-tag for BLI and sortase-tagged with biotin in the Western blots. The tag letters are not stated for the free nanobody, so they are left out."}, "B8": {"name": "LMJ1.3J (VHH)", "VHH": "QVQLVGTGGGLVQAGGSLRLSCAASGSTFSHSAGGWYRQAPEKQRELVAGISSAGNINYADSVKDRFTISRDNASNTMYLQMNNLKPEDTAVYVCNIRGSYGNTYYSRWGQGTQVTVSS", "modifications": "sortase-tagged with biotin in the Western blots ; Purified by a his-tag for BLI and sortase-tagged with biotin in the Western blots. The tag letters are not stated for the free nanobody, so they are left out."}, "B9": {"name": "LMJ2.5C (VHH)", "VHH": "QVQLVETGGGLVQAGGSLRLSCAASGSTFSHSAGGWYRQAPEKQRELVAGVRSDGNINYADSVKDRFTISRDNASNTMYLQMNNLKPEDTAVYVCNIRGSYGNTYYSRWGQGIQVTVSS", "modifications": "sortase-tagged with biotin in the Western blots ; Purified by a his-tag for BLI and sortase-tagged with biotin in the Western blots. The tag letters are not stated for the free nanobody, so they are left out."}, "B10": {"name": "LMJ1.2G (VHH)", "VHH": "QVQLVETGGGLVQAGGSLRLSCAASGSTFSHSAGGWYRQAPEKQRELVAGIGSDGNINYADSVKDRFTISRDNASNTMYLQMNNLKPEDTAVYVCNIRGSYGNTYYSRWGQGTQVTVSS", "modifications": "sortase-tagged with biotin in the Western blots ; Purified by a his-tag for BLI and sortase-tagged with biotin in the Western blots. The tag letters are not stated for the free nanobody, so they are left out."}, "B11": {"name": "LMJ2.5H (VHH)", "VHH": "QVQLVETGGGLVQAGGSLRLSCAVSGSTFSHSAGGWYRQAPEKQRELVAGIRSDGNINYADSVKDRFTISRDNASNTMYLQMNNLKPEDTAVYVCNIRGSYGNTYYSRWGQGTQVTVSS", "modifications": "sortase-tagged with biotin in the Western blots ; Western blots used the nanobody sortase-tagged with biotin at a terminus. The BLI material was his-tag purified. Tag letters are not stated for the stand-alone nanobody and are left out."}},
  "data": [
    {"molecular_target": "FN-EIIIB", "sequence (chain, as listed by the source)": "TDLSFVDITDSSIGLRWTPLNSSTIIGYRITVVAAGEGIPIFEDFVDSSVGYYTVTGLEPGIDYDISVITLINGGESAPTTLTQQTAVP", "assay": "BLI", "units": {"Kd": "nM"}, "values": [
      {"binder": "B1", "Kd": 0.0626},
      {"binder": "B2", "Kd": 1.82},
      {"binder": "B3", "Kd": 0.3},
      {"binder": "B4", "Kd": 0.0622},
      {"binder": "B5", "Kd": 0.166},
      {"binder": "B6", "Kd": 0.344},
      {"binder": "B7", "Kd": 0.0254},
      {"binder": "B8", "Kd": 0.402},
      {"binder": "B9", "Kd": 0.0785},
      {"binder": "B10", "Kd": 0.973},
      {"binder": "B11", "Kd": 0.227}
    ]}
  ]
}
